Publication PMC10945275

What was measured:
Experiment in all cases: radioligand binding
[1] = target: R84K-EGF receptor (UniProt P00533)
[2] = target: wild-type EGF receptor (UniProt P00533)
[3] = target: A265V-EGF receptor (UniProt P00533)
[4] = target: G574V-EGF receptor (UniProt P00533)

## 125I-EGF (ligand)
[1]
  EC50: 0.036 nM
[2]
  EC50: 0.75 nM
[3]
  EC50: 0.28 nM
[4]
  EC50: 0.17 nM
